Results reported in PMC9718832, “An NKX-COUP-TFII morphogenetic code directs mucosal endothelial addressin expression” (Nature Communications, 2022).
Values belong to the binder of their own block, whether it stands above or below them.

Columns and labels:
GST-tagged COUP-TFII = biological target: T1, GST-tagged COUP-TFII (mouse, UniProt P43135 1-414); experiment: native gel or EMSA; NKX2-3 and COUP-TFII-GST co-incubated with labelled St6gal1 NCCE probe; complex seen on DNA; conditions: both partners purified
T1 construct: COUP transcription factor 2 (COUP-TFII, Nr2f2); Nr2f2 cDNA cloned into pGEX2TK; also called COUP-TFII-GST; source: E. coli BL21, purified
T1 sequence (looked up): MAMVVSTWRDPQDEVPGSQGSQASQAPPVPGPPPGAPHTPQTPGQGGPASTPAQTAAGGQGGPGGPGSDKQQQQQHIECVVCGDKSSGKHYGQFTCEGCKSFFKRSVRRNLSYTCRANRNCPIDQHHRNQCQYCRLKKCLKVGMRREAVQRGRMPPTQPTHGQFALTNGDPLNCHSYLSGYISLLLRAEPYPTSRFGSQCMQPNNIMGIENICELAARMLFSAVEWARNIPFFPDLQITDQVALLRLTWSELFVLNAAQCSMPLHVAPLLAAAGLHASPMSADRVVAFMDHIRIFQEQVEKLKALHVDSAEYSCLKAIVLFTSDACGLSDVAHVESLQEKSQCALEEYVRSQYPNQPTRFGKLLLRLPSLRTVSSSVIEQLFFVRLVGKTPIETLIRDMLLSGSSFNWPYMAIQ

[1] = biological target: T2, COUP-TFII (recombinant, His- and T7-tagged) (mouse, UniProt P43135 1-414); experiment: native gel or EMSA; recombinant proteins co-incubated with labelled Madcam1 CE probes (native CE, CE_ΔC_A, CE_ΔN_ΔC_A); 4 °C, 20% glycerol, 20 mM Tris pH 8.0, 10 mM KCl, 1 mM DTT, poly dI/C, BSA; 6% gel; supershift with anti-NKX2-3; complex seen on DNA; conditions: both partners purified
T2 construct: COUP transcription factor 2 (COUP-TFII, Nr2f2), mouse; cDNA PCR-amplified from mouse cDNA as BamHI-EcoRI fragment and cloned into pET21-A; also called Nr2f2; NR2F2; source: E. coli BL21, purified
T2 sequence (looked up): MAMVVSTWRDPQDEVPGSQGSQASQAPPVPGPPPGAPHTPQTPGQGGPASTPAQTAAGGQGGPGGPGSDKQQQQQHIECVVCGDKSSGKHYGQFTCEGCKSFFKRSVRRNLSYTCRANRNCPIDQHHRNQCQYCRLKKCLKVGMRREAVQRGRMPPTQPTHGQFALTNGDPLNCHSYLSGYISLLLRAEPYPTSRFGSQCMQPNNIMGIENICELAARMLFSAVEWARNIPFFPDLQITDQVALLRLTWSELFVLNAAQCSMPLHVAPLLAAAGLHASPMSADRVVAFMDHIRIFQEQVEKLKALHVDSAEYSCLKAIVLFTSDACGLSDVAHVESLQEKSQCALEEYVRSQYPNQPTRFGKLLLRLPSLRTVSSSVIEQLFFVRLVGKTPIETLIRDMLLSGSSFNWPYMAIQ

HEY1 [2] = biological target: T3, HEY1 (mouse, UniProt Q9WV93 1-299); experiment: EMSA; supershift with anti-HEY1 (HRT1); EMSA: 20 mM Tris pH 8.0, 10 mM KCl, 1 mM DTT, 20% glycerol, 12.5 ng poly dI/C, 6.25 pmol random ss oligo, BSA, 1-2 pmol probe, 4 C; conditions: protein: recombinant; tags: His, T7 (pET21A); chain copies: 2; blunt
T3 sequence: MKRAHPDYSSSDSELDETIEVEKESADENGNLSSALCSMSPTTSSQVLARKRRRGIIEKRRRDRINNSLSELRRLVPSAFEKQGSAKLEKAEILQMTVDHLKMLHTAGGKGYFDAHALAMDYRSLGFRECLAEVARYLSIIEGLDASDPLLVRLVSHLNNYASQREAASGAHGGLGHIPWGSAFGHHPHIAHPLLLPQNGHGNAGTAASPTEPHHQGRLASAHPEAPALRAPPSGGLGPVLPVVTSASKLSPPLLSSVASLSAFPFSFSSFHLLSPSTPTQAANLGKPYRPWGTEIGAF

NKX2-3;COUP-TFII [3] = biological target: T4, NKX2-3;COUP-TFII (mouse;mouse, UniProt P97334;P43135 1-362;1-414, |); experiment: EMSA; EMSA: 20 mM Tris pH 8.0, 10 mM KCl, 1 mM DTT, 20% glycerol, 12.5 ng poly dI/C, 6.25 pmol random ss oligo, BSA, 1-2 pmol probe, 4 C; conditions: protein: recombinant;recombinant; tags: His, T7 (pET21A);His, T7 (pET21A); copies: 1;1; blunt
NKX2-3 [4] = biological target: T5, NKX2-3 (mouse, UniProt P97334 1-362); experiment: EMSA; supershift; HEY1 dose-dependently inhibits (Fig S1B); EMSA: 20 mM Tris pH 8.0, 10 mM KCl, 1 mM DTT, 20% glycerol, 12.5 ng poly dI/C, 6.25 pmol random ss oligo, BSA, 1-2 pmol probe, 4 C; conditions: protein: recombinant; tags: His, T7 (pET21A); blunt
COUP-TFII [5] = biological target: T6, COUP-TFII (mouse, UniProt P43135 1-414); experiment: EMSA; supershift; EMSA: 20 mM Tris pH 8.0, 10 mM KCl, 1 mM DTT, 20% glycerol, 12.5 ng poly dI/C, 6.25 pmol random ss oligo, BSA, 1-2 pmol probe, 4 C; conditions: protein: recombinant; tags: His, T7 (pET21A); chain copies: 2; blunt
T6 sequence: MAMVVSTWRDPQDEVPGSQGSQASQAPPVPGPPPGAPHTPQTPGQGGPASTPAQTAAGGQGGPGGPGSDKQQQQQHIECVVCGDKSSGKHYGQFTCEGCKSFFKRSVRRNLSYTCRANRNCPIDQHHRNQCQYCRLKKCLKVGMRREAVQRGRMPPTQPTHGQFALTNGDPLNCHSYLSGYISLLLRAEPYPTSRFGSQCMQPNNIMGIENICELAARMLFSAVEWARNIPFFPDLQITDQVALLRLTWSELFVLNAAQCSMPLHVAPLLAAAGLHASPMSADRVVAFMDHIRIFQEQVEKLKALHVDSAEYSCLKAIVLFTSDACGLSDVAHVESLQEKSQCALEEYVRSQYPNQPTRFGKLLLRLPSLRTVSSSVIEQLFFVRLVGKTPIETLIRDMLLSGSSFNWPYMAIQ

NKX2-3 [6] = biological target: T5, NKX2-3; experiment: EMSA; EMSA: 20 mM Tris pH 8.0, 10 mM KCl, 1 mM DTT, 20% glycerol, 12.5 ng poly dI/C, 6.25 pmol random ss oligo, BSA, 1-2 pmol probe, 4 C; conditions: protein: recombinant; tags: His, T7 (pET21A); blunt
HEY1 [7] = biological target: T3, HEY1; experiment: as above; conditions: protein: recombinant; tags: His, T7 (pET21A); chain copies: 2; blunt
NKX2-3;COUP-TFII [8] = biological target: T4, NKX2-3;COUP-TFII; experiment: EMSA; supershift with anti-NKX2-3; EMSA: 20 mM Tris pH 8.0, 10 mM KCl, 1 mM DTT, 20% glycerol, 12.5 ng poly dI/C, 6.25 pmol random ss oligo, BSA, 1-2 pmol probe, 4 C; conditions: protein: recombinant;recombinant, tags: His, T7 (pET21A);His, copies: 1;1, blunt
COUP-TFII [9] = biological target: T6, COUP-TFII; experiment: EMSA; EMSA: 20 mM Tris pH 8.0, 10 mM KCl, 1 mM DTT, 20% glycerol, 12.5 ng poly dI/C, 6.25 pmol random ss oligo, BSA, 1-2 pmol probe, 4 C; conditions: protein: recombinant; tags: His, T7 (pET21A); chain copies: 2; blunt
NKX2-3;COUP-TFII [10] = biological target: T4, NKX2-3;COUP-TFII; experiment: EMSA; band stronger than on WT CE; supershift with anti-NKX2-3; EMSA: 20 mM Tris pH 8.0, 10 mM KCl, 1 mM DTT, 20% glycerol, 12.5 ng poly dI/C, 6.25 pmol random ss oligo, BSA, 1-2 pmol probe, 4 C; conditions: protein: recombinant;recombinant, tags: His, T7 (pET21A);His, copies: 1;1, blunt
NKX2-3;COUP-TFII-GST = NKX2-3;COUP-TFII-GST (mouse;mouse, UniProt P97334;P43135 1-362;1-414, |); experiment: EMSA; EMSA: 20 mM Tris pH 8.0, 10 mM KCl, 1 mM DTT, 20% glycerol, 12.5 ng poly dI/C, 6.25 pmol random ss oligo, BSA, 1-2 pmol probe, 4 C; conditions: protein: recombinant;recombinant; tags: His, T7 (pET21A);GST (pGEX2TK); copies: 1;1; label: labeled; blunt
NKX2-3 [11] = biological target: T5, NKX2-3; experiment: EMSA; inhibited by cold WT probe; EMSA: 20 mM Tris pH 8.0, 10 mM KCl, 1 mM DTT, 20% glycerol, 12.5 ng poly dI/C, 6.25 pmol random ss oligo, BSA, 1-2 pmol probe, 4 C; conditions: protein: recombinant; tags: His, T7 (pET21A); label: labeled; blunt
COUP-TFII-GST = biological target: T7, COUP-TFII-GST (mouse, UniProt P43135 1-414); experiment: as above; conditions: protein: recombinant; tags: GST (pGEX2TK); chain copies: 2; label: labeled; blunt
T7 sequence: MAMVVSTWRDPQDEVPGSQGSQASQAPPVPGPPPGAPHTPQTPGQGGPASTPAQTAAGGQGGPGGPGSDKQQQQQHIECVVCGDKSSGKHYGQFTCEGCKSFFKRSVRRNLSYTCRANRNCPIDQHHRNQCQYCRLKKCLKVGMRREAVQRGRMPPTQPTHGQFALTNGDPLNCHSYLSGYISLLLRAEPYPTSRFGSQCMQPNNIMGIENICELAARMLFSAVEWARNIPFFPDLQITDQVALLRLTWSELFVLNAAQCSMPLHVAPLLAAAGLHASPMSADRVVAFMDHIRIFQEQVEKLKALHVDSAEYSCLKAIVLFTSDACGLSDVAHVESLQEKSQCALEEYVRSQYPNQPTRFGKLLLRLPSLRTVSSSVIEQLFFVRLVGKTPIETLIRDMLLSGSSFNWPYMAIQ

NKX2-5;COUP-TFII = NKX2-5;COUP-TFII (mouse;mouse, UniProt P42582;P43135 1-318;1-414, |); experiment: EMSA; COUP-TFII tag not stated; EMSA: 20 mM Tris pH 8.0, 10 mM KCl, 1 mM DTT, 20% glycerol, 12.5 ng poly dI/C, 6.25 pmol random ss oligo, BSA, 1-2 pmol probe, 4 C; conditions: protein: recombinant;recombinant, tags: His, T7 (pET21A);His, copies: 1;1, blunt
Sequence of NKX2-5;COUP-TFII (P42582 whole entry, one chain of several): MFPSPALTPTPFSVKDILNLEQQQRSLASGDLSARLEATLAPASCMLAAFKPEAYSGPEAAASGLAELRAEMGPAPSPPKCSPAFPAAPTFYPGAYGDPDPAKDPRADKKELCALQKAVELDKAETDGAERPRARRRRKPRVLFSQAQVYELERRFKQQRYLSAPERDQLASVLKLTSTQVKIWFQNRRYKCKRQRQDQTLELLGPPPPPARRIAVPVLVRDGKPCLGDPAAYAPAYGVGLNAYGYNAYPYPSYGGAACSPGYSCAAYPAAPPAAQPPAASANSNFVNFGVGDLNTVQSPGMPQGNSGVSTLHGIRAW

- binding result (GST-tagged COUP-TFII): binds
- binding result [1]: binds
B1: NKX2-3 (recombinant, His- and T7-tagged) (natural protein, mouse, UniProt P97334 1-362, looked up)
chain: MMLPSPVTSTPFSVKDILNLEQQRHFHGAHLQAELEQHFHSAPCMLATAEGTQFSDAGEEDEEEEGEKLSYLNSLAAAEGHGDSGLCPQSYVHTVLRDACSGPKEQEEEVVSERSQKSCQLKKSLEAAGDCKTSEDGERPKPRSRRKPRVLFSQAQVFELERRFKQQRYLSAPEREHLASSLKLTSTQVKIWFQNRRYKCKRQRQDKSLELGTHAPPPPPRRVAVPVLVRDGKPCVTPSAQTYGSPYGVGAGAYSYNSFPAYGYGNSAAAAAAAAAAAAAAAAYSGSYGCAYPTGGGGGGGGTASAATTAMQPACSATGGGSFVNVSNLGGFGSGGGAQPLHQGAAAGSACTQGTLQGIRAW
notes: Homeobox protein NKX2-3, mouse; cDNA PCR-amplified from mouse cDNA as EcoRI-HindIII fragment and cloned into pET21-A; also called intestinal homeodomain protein NKX2-3; source: E. coli BL21, purified

B2: Madcam1 CE WT (dsDNA)
DNA 1: CCATGCACTTGACCCACCATGGTGACCCACCTCC
DNA 2: GGAGGTGGGTCACCATGGTGGGTCAAGTGCATGG
- binding result (HEY1 [2]): binds
- binding result (NKX2-3;COUP-TFII [3]): binds
- binding result (NKX2-3 [4]): binds
- binding result (COUP-TFII [5]): binds

B3: Madcam1 CE_deltaE/N (m1) (dsDNA)
DNA 1: CCATGGTCTTGACCCACCATGGTGACCCACCTCC
DNA 2: GGAGGTGGGTCACCATGGTGGGTCAAGACCATGG
- binding result (NKX2-3 [6]): no binding
- binding result (HEY1 [7]): no binding

B4: Madcam1 CE_deltaN_deltaC_A (dsDNA)
DNA 1: CCATGGTCTTGAAAAAAAATGGTGACCCACCTCC
DNA 2: GGAGGTGGGTCACCATTTTTTTTCAAGACCATGG
- binding result (NKX2-3;COUP-TFII [8]): binds
- binding result (COUP-TFII [9]): binds
- binding result (NKX2-3 [6]): no binding

B5: Madcam1 CE_deltaC_A (dsDNA)
DNA 1: CCATGCACTTGAAAAAAAATGGTGACCCACCTCC
DNA 2: GGAGGTGGGTCACCATTTTTTTTCAAGTGCATGG
- binding result (NKX2-3;COUP-TFII [10]): binds

B6: St6gal1 CE WT (dsDNA)
DNA 1: GAGGCTGGTCAGAGAAGTGTGAAAAG
DNA 2: CTTTTCACACTTCTCTGACCAGCCTC
- binding result (NKX2-3;COUP-TFII-GST): binds
- binding result (NKX2-3 [11]): binds
- binding result (COUP-TFII-GST): binds

B7: Etv2 NCCE (dsDNA)
DNA 1: CCTGCAACTTGACCCAGGCTGCGACCCCCAGC
DNA 2: GCTGGGGGTCGCAGCCTGGGTCAAGTTGCAGG
- binding result (NKX2-5;COUP-TFII): binds

B8: Tbx5 NCCE (dsDNA)
DNA 1: CCGCTGACCCGACCCTTAATAAGGCA
DNA 2: TGCCTTATTAAGGGTCGGGTCAGCGG
- binding result (NKX2-5;COUP-TFII): binds
